Biological target: Recombinant human FGF2 (fibroblast growth factor-2), biotinylated (human)
Assay: AlphaScreen or HTRF

EC50: 7 nM
B1: mSDC1: commercial glycosylated, mammalian expressed recombinant mouse SDC1 ectodomain (domain or fragment)
chain: QIVAVNVPPEDQDGSGDDSDNFSGSGTGALPDTLSRQTPSTWKDVWLLTATPTAPEPTSSNTETAFTSVLPAGEKPEEGEPVLHVEAEPGFTARDKEKEVTTRPRETVQLPITQRASTVRVTTAQAAVTSHPHGGMQPGLHETSAPTAPGQPDHQPPRVEGGGTSVIKEVVEDGTANQLPAGEGSGEQDFTFETSGENTAVAAVEPGLRNQPPVDEGATGASQSLLDRKEVLG
modifications: native GAG chains from the mammalian host (CS predominant over HS by the paper's disaccharide analysis)

Reference: paper PMC9205196
